First the molecules themselves.
B1: Compound 78 (peptide)
peptide: CPLVNPLCLHPGWTCLXG
modifications: not fully specified; N-terminal Ac; D-His; C-terminal -Sar6-(D-K); TATA scaffold on the 3 Cys
B2: BCY6031 (peptide)
peptide: AXDCPLVNPLCLHPGWTC
modifications: not fully specified; as BCY6014 (N-terminal (β-Ala)-Sar10; HArg; TATA scaffold on the 3 Cys) + DM1-SS-
notes: Bicycle drug conjugate (BDC)
B3: BCY6032 (peptide)
peptide: AXDCPLVNPLCLHPGWTC
modifications: not fully specified; as BCY6014 (N-terminal (β-Ala)-Sar10; HArg; TATA scaffold on the 3 Cys) + DM1-SS-(Me)-
notes: Bicycle drug conjugate (BDC)
B4: BCY6031 (peptide)
peptide: AXDCPLVNPLCLHPGWTC
modifications: not fully specified; N-terminal (β-Ala)-Sar10 spacer precedes SEQ ID NO: 11; HArg (homoarginine) at residue 2 of SEQ ID NO: 11; three Cys cyclised on the TATA scaffold; DM1-SS- (DM1-SPDB) on the N-terminal amine
B5: BCY6032 (peptide)
peptide: AXDCPLVNPLCLHPGWTC
modifications: not fully specified; N-terminal (β-Ala)-Sar10 spacer precedes SEQ ID NO: 11; HArg (homoarginine) at residue 2 of SEQ ID NO: 11; three Cys cyclised on the TATA scaffold; DM1-SS-(Me)- (DM1-SPP) on the N-terminal amine
B6: BCY6026 (peptide)
peptide: ACPLVNPLCLHPGWSCRGQ
modifications: linker 2-9-16 via TATA
notes: Bicyclic peptide on a TATA scaffold, no toxin; Made on Rink amide resin; also called Compound 87; Bicycle Compound Number 87
B7: BCY6034 (peptide)
peptide: AXDCPLVNPLCLHPGWTC
modifications: not fully specified; N-terminal (β-Ala)-Sar10 spacer precedes SEQ ID NO: 11; HArg (homoarginine) at residue 2 of SEQ ID NO: 11; three Cys cyclised on the TATA scaffold; TrpCit-MMAE (MMAE-PABC-Cit-Trp-glutarate) on the N-terminal amine
B8: BCY6105 (peptide)
peptide: AXDCPLVNPLCLHPGWTC
modifications: not fully specified; as BCY6014 (N-terminal (β-Ala)-Sar10; HArg; TATA scaffold on the 3 Cys) + MMAE-Ala-Ala-Asn
notes: Bicycle drug conjugate (BDC)
B9: BCY6106 (peptide)
peptide: AXDCPLVNPLCLHPGWTC
modifications: not fully specified; as BCY6014 (N-terminal (β-Ala)-Sar10; HArg; TATA scaffold on the 3 Cys) + MMAE-D-Ala-Phe-Lys-
notes: Bicycle drug conjugate (BDC)
B10: BCY6107 (peptide)
peptide: AXDCPLVNPLCLHPGWTC
modifications: not fully specified; as BCY6014 (N-terminal (β-Ala)-Sar10; HArg; TATA scaffold on the 3 Cys) + MMAE-Glu-Pro-Cit-Gly-hPhe-Tyr-Leu-
notes: Bicycle drug conjugate (BDC)
B11: BCY6039 (peptide)
peptide: AXDCPLVNPLCLHPGWTC
modifications: not fully specified; as BCY6014 (N-terminal (β-Ala)-Sar10; HArg; TATA scaffold on the 3 Cys) + DM1-(Me)-SS-(Me)-
notes: Bicycle drug conjugate (BDC)
B12: BCY6064 (peptide)
peptide: AXDCPLVNPLCLHPGWTC
modifications: not fully specified; as BCY6014 (N-terminal (β-Ala)-Sar10; HArg; TATA scaffold on the 3 Cys) + Non-cleavable (DM1)
notes: Bicycle drug conjugate (BDC)
B13: BCY6062 (peptide)
peptide: AXDCPLVNPLCLHPGWTC
modifications: not fully specified; as BCY6014 (N-terminal (β-Ala)-Sar10; HArg; TATA scaffold on the 3 Cys) + D-TrpCit-MMAE
notes: Bicycle drug conjugate (BDC)
B14: BCY6077 (peptide)
peptide: AXDCPLVNPLCLHPGWTC
modifications: not fully specified; as BCY6014 (N-terminal (β-Ala)-Sar10; HArg; TATA scaffold on the 3 Cys) + DM1-SS-(Me)-SO3H-
notes: Bicycle drug conjugate (BDC)
B15: BCY6063 (peptide)
peptide: AXDCPLVNPLCLHPGWTC
modifications: not fully specified; as BCY6014 (N-terminal (β-Ala)-Sar10; HArg; TATA scaffold on the 3 Cys) + Non-cleavable (MMAE)
notes: Bicycle drug conjugate (BDC)
B16: BCY6034 (peptide)
peptide: AXDCPLVNPLCLHPGWTC
modifications: not fully specified; as BCY6014 (N-terminal (β-Ala)-Sar10; HArg; TATA scaffold on the 3 Cys) + TrpCit-MMAE
notes: Bicycle drug conjugate (BDC)
B17: BCY6061 (peptide)
peptide: AXDCPLVNPLCLHPGWTC
modifications: not fully specified; as BCY6014 (N-terminal (β-Ala)-Sar10; HArg; TATA scaffold on the 3 Cys) + ValLys-MMAE
notes: Bicycle drug conjugate (BDC)
B18: BCY6174 (peptide)
peptide: [βAla][Sar][Sar][Sar][Sar][Sar][Sar][Sar][Sar][Sar][Sar]A[hArg]DC[Hyp]LVNPLCLHP[dD]W[hArg]C
modifications: linker 15-22-29 via TATA; not fully specified (N-terminus, C-terminus); also: ValLys-MMAE conjugate, site not given here
notes: Bicycle drug conjugate (BDC)
B19: BCY6173 (peptide)
peptide: [βAla][Sar][Sar][Sar][Sar][Sar][Sar][Sar][Sar][Sar][Sar]A[hArg]DC[Hyp]LVNPLCLHP[dD]W[hArg]C
modifications: linker 15-22-29 via TATA; not fully specified (N-terminus, C-terminus); numbers in words are those of the source; also: DM1-SS(SO3H)- conjugate, site not given here
notes: Bicycle drug conjugate (BDC)
B20: BCY6135 (peptide)
peptide: [βAla][Sar][Sar][Sar][Sar][Sar][Sar][Sar][Sar][Sar][Sar]A[hArg]DC[Hyp]LVNPLCLHP[dD]W[hArg]C
modifications: linker 15-22-29 via TATA; not fully specified (N-terminus, C-terminus); numbers in words are those of the source; also: DM1-SS- conjugate, site not given here
notes: Bicycle drug conjugate (BDC)
B21: BCY6136 (peptide)
peptide: [βAla][Sar][Sar][Sar][Sar][Sar][Sar][Sar][Sar][Sar][Sar]A[hArg]DC[Hyp]LVNPLCLHP[dD]W[hArg]C
modifications: linker 15-22-29 via TATA; not fully specified (N-terminus, C-terminus); also: ValCit-MMAE conjugate, site not given here
notes: Bicycle drug conjugate (BDC); also called BT5528

*1 amine or outer side, *2 acyl side, *3 side chain or, on linkers, in order; H or OH if unused. Bridges are numbered along the chain shown (N, C = ends). Where no end group is shown, it is not given here. [ ]: non-standard residue; d: D form. TATA = O=C(CC[*:1])N1CN(C(=O)CC[*:2])CN(C(=O)CC[*:3])C1; Hyp = O=C(O)[C@@H]1C[C@@H](O)CN1; hArg = N=C(N)NCCCC[C@H](N)C(=O)O; βAla = NCCC(=O)O; Sar = CNCC(=O)O

T1 sequence (P29317 24-537): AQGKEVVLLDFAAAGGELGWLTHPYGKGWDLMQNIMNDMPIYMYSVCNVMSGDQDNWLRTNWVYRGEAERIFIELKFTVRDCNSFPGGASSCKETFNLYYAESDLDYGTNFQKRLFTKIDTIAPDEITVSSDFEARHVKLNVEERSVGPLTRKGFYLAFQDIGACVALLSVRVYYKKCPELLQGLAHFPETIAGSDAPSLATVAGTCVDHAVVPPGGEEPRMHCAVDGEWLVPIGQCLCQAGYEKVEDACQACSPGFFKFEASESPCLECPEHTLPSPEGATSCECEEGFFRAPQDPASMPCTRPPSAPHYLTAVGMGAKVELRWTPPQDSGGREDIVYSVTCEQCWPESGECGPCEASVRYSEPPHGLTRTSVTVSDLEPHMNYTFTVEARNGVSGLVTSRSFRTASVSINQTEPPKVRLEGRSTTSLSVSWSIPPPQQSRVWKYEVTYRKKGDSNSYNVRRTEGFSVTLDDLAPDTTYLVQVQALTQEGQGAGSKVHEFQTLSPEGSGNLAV

The first assay addresses T1, Human EphA2 (Ecto), C-terminal polyHis (Human, UniProt P29317 24-537).
T1 construct: extracellular domain; R&D systems 3035-A2 or in-house
Nature of the assay: FP competition vs Reference Compound A.
Consider ACQPSNHCAFMNYCA (linker 2-8-14 via TATA) [Compound 30], for which the Ki (commonly the equilibrium dissociation constant of an inhibitor or competing ligand from its target) was found to be 137 nM.

In turn, ACTSCWAYPDSFCA (linker 2-5-13 via TATA; not fully specified (C-terminus)) [Compound 32] registered an inhibition constant (Ki) of 151 nM.

ACYVGKECAYMNVCA (linker 2-8-14 via TATA; not fully specified (C-terminus)) [Compound 29]: the affinity corresponds to a Ki of 87.7 nM.

Another assay has as its target T1, Human EphA2 (Ecto), C-terminal polyHis. Put plainly: FP competition vs Reference Compound B.
Molecule ACQPSNHCAFMNYCA (linker 2-8-14 via TATA) [Compound 30] gave a Ki of 187 nM.

Consider ACSPTPACAVQNLCA (linker 2-8-14 via TATA; not fully specified (C-terminus)) [Compound 31], for which the Ki came to 177 nM.

Molecule ACYVGKECAYMNVCA (linker 2-8-14 via TATA; not fully specified (C-terminus)) [Compound 29] showed an inhibition constant (Ki) of 107 nM.

For a further assay the target is unchanged. Put plainly: FP competition vs Reference Compound C.
B1 registered an inhibition constant (Ki) of 15.6 nM.

Molecule ACTSCWAYPDSFCA (linker 2-5-13 via TATA; not fully specified (C-terminus)) [Compound 32] showed an inhibition constant (Ki) of 232 nM.

In the case of ACSPTPACAVQNLCA (linker 2-8-14 via TATA; not fully specified (C-terminus)) [Compound 31], the affinity corresponds to a Ki of 223 nM.

With ACYVGKECAYMNVCA (linker 2-8-14 via TATA; not fully specified (C-terminus)) [Compound 29], the inhibition constant (Ki) stood at 210 nM.

The target of a further assay is T2, Mouse EphA2 (Ecto) (Mouse, UniProt Q03145 26-538).
T2 construct: extracellular domain; Fluorescence polarisation assays; not shown: Fc fusion (R&D Systems 639-A2) or C-terminal polyHis (Sino Biological 50586-M08H)
T2 sequence (Q03145 26-538): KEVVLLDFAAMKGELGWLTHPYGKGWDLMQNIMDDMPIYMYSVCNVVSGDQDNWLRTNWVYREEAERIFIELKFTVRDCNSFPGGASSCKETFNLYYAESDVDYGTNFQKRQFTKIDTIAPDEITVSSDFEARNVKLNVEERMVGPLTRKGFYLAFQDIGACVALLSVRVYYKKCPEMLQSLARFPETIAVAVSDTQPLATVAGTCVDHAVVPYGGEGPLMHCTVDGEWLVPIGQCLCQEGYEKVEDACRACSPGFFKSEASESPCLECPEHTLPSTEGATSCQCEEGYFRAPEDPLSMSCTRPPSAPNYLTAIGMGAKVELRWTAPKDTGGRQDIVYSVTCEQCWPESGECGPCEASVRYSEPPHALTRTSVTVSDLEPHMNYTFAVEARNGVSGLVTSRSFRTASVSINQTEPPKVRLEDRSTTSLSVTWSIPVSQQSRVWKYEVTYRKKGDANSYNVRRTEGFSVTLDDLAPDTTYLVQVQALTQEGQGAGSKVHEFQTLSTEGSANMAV
Put plainly: FP competition vs Reference Compound C.
On to B1, for which the inhibition constant Ki was determined as 115 nM.

The target in a further assay is T1, Human EphA2 (Ecto), C-terminal polyHis. Put plainly: FP competition vs Reference Compound C. The source holds these as a separate data set.
As to B2, the Ki amounted to 12.6 nM.

For the molecule B3, the affinity corresponds to a Ki of 11.4 nM.

For the next assay, the target named is T2, Mouse EphA2 (Ecto). Nature of the assay: FP competition vs Reference Compound C. The source holds these as a separate data set.
For B2, the Ki came out at 34.7 nM.

The molecule B3 gave an inhibitory constant (Ki) of 35.9 nM.

The target of another assay is T3, Human EphA2 (Human, UniProt P29317 24-537, limits assumed, biotinylated, 0.95 mol biotin/monomer).
T3 construct: also called Eph receptor tyrosine kinase A2
T3 sequence (P29317 24-537 limits assumed): as the sequence (P29317 24-537) above
Put plainly: SPR, biotinylated EphA2 on streptavidin chip. Background: SPR reads the build-up and loss of mass on a sensor chip optically.
Consider B4, for which the Kd (usually a measure of binding affinity in units of concentration) amounted to 1.99 nM and the t1/2 was 2.3 min.

Turning to B5, binding was put at a Kd of 2.1 nM and the t1/2 was found to be 2.2 min.

On to B6, for which the t1/2 was determined as 11.3 min.

B7 had a dissociation constant Kd of 1.64 nM and a t1/2 of 3.2 min.

Another assay concerns the target T1, Human EphA2 (Ecto), C-terminal polyHis. Nature of the assay: FP competition vs Reference Compound C (Study 2).
B8 came in with an inhibition constant Ki of 8.86 nM.

B9 showed a Ki of 12.9 nM.

In turn, B10 gave a Ki of 19.2 nM.

B11 had a Ki of 9.4 nM.

A further assay shares this target. Put plainly: FP competition vs Reference Compound C (Study 2). This is another data set of the same source.
Regarding B12, the Ki worked out at 12.5 nM.

Turning to B2, the affinity, expressed as Ki, was 12.5 nM.

B13 gave a Ki of 12.9 nM.

With B14, affinity was put at a Ki of 6.5 nM.

Regarding B15, the Ki was found to be 7.8 nM.

Turning to B16, the Ki was found to be 5.9 nM.

For B3, the Ki was determined as 11.4 nM.

As to B17, the inhibition constant (Ki) is 12 nM.

For a further assay, the target named is T2, Mouse EphA2 (Ecto). Nature of the assay: FP competition vs Reference Compound C (Study 2).
On to B12, for which the affinity corresponds to a Ki of 40.7 nM.

Regarding B2, the affinity corresponds to a Ki of 35.1 nM.

For the molecule B13, the affinity corresponds to a Ki of 20.3 nM.

In the case of B14, affinity was put at a Ki of 25.3 nM.

B15 came in with an inhibitory constant (Ki) of 66.8 nM.

With B16, the affinity corresponds to a Ki of 35.9 nM.

B3 registered a Ki of 35.9 nM.

With B17, the affinity corresponds to a Ki of 32.3 nM.

The next assay has as its target T4, Rat EphA2 (ligand binding), C-terminal polyHis (Rat).
T4 construct: In-house
Put plainly: FP competition vs Reference Compound C (Study 2).
As for B2, the affinity corresponds to a Ki of 20 nM.

With B18, the inhibition constant (Ki) amounted to 3 nM.

As for B19, affinity was put at a Ki of 2.5 nM.

Take B20: the affinity corresponds to a Ki of 2.9 nM.

For B21, the affinity, expressed as Ki, was 3.2 nM.

As to B17, the affinity corresponds to a Ki of 14.2 nM.
